Source: patent US11130803B2, “Isoform-selective TGFβ1 inhibitors and use thereof” (Scholar Rock, Inc., priority 2018, dated 2021)
Where two headings read alike, the source gives them in different places.

What was measured:
hGARP-proTGFβ1 = target: T1, hGARP-proTGFβ1 (Homo sapiens, UniProt P01137); test: MSD-SET solution equilibrium titration binding; conditions: MSD-SET at equilibrium, hIgG4, human complex; in M
T1 construct: made in house
Description: (§1) Solution Equilibrium Titration (SET): The SET is an assay whereby binding between two molecules (such as an antigen and an antibody that binds the antigen) can be measured at equilibrium in a solution. For example, Meso-Scale Discovery (“MSD”)-based SET, or MSD-SET, is a useful mode of determining dissociation constants for particularly high-affinity protein-protein interactions at equilibrium, such as picomolar-affinity antibodies binding to their antigens (see, for example: Ducata et al. (2015) J Biomolecular Screening 20(10): 1256-1267). The SET-based assays are particularly useful for determining KD values of antibodies with sub-nanomolar (e.g., picomolar) affinities.
(§2) In view of this, it is contemplated that assays that measure binding affinities of such antibodies at equilibrium may more accurately represent the mode of target engagement in vivo. Thus, MSD-SET-based binding assays (or other suitable assays) may be performed, as exemplified in Table 9 below.
(§3) Solution equilibrium titration (“SET”) is an assay whereby binding between two molecules (such as an antigen and an antibody that binds the antigen) can be measured at equilibrium in a solution. For example, Meso-Scale Discovery (“MSD”)-based SET, or MSD-SET, is a useful mode of determining dissociation constants for particularly high-affinity protein-protein interactions at equilibrium (see, for example: Ducata et al. (2015) J Biomolecular Screening 20(10): 1256-1267). The SET-based assays are particularly useful for determining KD values of antibodies with sub-nanomolar (e.g., picomolar) affinities.
(§4) For solution equilibrium titration-based binding assays, protein complexes that comprise one of the presenting molecules such as those shown above may be employed as antigen (presenting molecule-TGFβ1 complex, or an LLC). Test antibodies are allowed to form antigen-antibody complex in solution. Antigen-antibody reaction mixtures are incubated to allow an equilibrium to be reached; the amount of the antigen-antibody complex present in the assay reactions can be measured by suitable means well known in the art. As compared to BLI-based assays, SET-based assays are less affected by on/off rates of the antigen-antibody complex, allowing sensitive detection of very high affinity interactions.

hLRRC33-proTGFβ1 = target: T2, hLRRC33-proTGFβ1 (Homo sapiens, UniProt P01137); test: MSD-SET solution equilibrium titration binding; conditions: MSD-SET at equilibrium, hIgG4, human complex; in M
T2 construct: made in house
Description: as §1, §2, §3, §4

hLTBP1-proTGFβ1 = target: T3, hLTBP1-proTGFβ1 (Homo sapiens, UniProt P01137); test: MSD-SET solution equilibrium titration binding; conditions: MSD-SET at equilibrium, hIgG4, human complex; in M
T3 construct: made in house; host or cells: Expi293F cells, transient co-transfection
Description: as §1, §2, §3, §4

hLTBP3-proTGFβ1 = target: T4, hLTBP3-proTGFβ1 (Homo sapiens, UniProt P01137); test: MSD-SET solution equilibrium titration binding; conditions: MSD-SET at equilibrium, hIgG4, human complex; in M
T4 construct: made in house; host or cells: Expi293F cells, transient co-transfection
Description: as §1, §2, §3, §4

[1] = system: hLTBP1-/hLTBP3-proTGFβ1 vs hGARP-/hLRRC33-proTGFβ1 complexes; test: Solution equilibrium titration: relative affinity (bias) LTBP complexes vs cell-associated complexes; type: binding, human; conditions: MSD-SET; for (H) G/D (fold bias): ratio of average KD cell-associated / matrix-associated
Description: Context-biased: As used herein, “context-biased antibodies” refer to a type of conformational antibodies that binds an antigen with differential affinities when the antigen is associated with (i.e., bound to or attached to) an interacting protein or a fragment thereof. Thus, a context-biased antibody that specifically binds an epitope within proTGFβ1 may bind LTBP1-proTGFβ1, LTBP3-proTGFβ1, GARP-proTGFβ1 and LRRC33-proTGFβ1 with different affinities. […] Relative affinities of [matrix-associated complexes]: [cell-associated complexes] may be obtained by taking average KD values of the former, taking average KD values of the latter, and calculating the ratio of the two, as exemplified herein.
In a yet further aspect, the present disclosure provides context-biased TGFβ1 inhibitors. The context-biased antibodies include LTBP-biased antibodies with higher affinities for ECM-associated LLCs than for cell-associated LLCs wherein the affinities are measured at equilibrium.

[2] = system: matrix-associated (LTBP1/LTBP3) and cell-associated (GARP/LRRC33) proTGFβ1 complexes; test: Octet: average KD and fold bias, matrix- vs cell-associated complexes; type: binding, human; conditions: average KD of (B) and (C), read-out: (D) ECM AVRG
[3] = average KD of (B) and (C), read-out: (D) ECM AVRG
[4] = average KD of (E) and (F), read-out: (G) Cell AVRG

T2 sequence (P01137 30-390): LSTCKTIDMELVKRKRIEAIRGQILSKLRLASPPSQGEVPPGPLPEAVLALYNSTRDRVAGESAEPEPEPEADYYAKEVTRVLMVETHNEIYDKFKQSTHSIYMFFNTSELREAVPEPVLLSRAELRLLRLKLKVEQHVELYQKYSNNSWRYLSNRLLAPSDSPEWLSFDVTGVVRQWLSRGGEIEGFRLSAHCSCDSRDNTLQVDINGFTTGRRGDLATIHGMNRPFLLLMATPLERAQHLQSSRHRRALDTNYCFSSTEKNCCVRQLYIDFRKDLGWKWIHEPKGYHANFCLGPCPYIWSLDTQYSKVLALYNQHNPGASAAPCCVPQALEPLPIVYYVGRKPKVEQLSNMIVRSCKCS
T2 sequence (Q86YC3 19-650 partner limits assumed): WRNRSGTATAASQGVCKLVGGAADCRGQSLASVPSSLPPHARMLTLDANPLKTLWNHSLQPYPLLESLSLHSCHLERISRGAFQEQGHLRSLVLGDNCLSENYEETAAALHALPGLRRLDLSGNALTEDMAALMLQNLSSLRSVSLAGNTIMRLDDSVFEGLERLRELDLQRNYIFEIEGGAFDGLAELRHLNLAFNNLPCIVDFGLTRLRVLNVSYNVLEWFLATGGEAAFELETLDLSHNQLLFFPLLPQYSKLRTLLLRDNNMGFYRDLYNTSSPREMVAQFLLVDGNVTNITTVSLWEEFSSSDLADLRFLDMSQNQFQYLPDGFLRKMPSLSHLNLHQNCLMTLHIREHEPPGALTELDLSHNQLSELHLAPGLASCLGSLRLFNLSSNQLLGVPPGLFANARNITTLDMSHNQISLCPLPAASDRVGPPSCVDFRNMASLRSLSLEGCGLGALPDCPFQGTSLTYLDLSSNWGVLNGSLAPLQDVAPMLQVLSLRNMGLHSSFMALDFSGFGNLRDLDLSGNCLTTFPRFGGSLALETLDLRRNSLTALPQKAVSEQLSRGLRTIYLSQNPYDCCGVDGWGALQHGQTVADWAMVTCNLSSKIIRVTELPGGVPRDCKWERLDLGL
T1 sequence (P01137 30-390): as the sequence (P01137 30-390) above
T1 sequence (Q14392 20-627 partner limits assumed): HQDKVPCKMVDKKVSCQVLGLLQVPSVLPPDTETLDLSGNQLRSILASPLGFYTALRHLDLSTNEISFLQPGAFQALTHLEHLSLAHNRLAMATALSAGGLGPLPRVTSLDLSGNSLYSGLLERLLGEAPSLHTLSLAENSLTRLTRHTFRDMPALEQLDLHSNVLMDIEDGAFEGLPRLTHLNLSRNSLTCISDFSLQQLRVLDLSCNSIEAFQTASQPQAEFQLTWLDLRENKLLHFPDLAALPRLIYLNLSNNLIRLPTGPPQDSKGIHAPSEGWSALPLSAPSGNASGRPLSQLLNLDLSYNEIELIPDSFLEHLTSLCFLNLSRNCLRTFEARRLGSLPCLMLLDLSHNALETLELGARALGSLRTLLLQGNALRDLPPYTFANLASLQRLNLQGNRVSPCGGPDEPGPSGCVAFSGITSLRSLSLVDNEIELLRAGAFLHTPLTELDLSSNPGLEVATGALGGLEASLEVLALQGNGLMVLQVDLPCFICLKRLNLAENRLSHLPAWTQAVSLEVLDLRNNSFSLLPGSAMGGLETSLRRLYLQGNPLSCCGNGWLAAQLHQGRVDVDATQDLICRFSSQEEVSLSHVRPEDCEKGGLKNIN
T4 sequence (P01137 30-390): as the sequence (P01137 30-390) above
T4 sequence (Q9NS15 866-1039 partner limits assumed): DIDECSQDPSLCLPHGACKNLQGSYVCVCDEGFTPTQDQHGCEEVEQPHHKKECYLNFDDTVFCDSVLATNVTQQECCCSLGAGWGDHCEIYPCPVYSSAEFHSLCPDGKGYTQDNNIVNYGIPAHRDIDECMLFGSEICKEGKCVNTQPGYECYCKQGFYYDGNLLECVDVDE
T3 sequence (P01137 30-390): as the sequence (P01137 30-390) above
T3 sequence (Q14766 873-1507 partner): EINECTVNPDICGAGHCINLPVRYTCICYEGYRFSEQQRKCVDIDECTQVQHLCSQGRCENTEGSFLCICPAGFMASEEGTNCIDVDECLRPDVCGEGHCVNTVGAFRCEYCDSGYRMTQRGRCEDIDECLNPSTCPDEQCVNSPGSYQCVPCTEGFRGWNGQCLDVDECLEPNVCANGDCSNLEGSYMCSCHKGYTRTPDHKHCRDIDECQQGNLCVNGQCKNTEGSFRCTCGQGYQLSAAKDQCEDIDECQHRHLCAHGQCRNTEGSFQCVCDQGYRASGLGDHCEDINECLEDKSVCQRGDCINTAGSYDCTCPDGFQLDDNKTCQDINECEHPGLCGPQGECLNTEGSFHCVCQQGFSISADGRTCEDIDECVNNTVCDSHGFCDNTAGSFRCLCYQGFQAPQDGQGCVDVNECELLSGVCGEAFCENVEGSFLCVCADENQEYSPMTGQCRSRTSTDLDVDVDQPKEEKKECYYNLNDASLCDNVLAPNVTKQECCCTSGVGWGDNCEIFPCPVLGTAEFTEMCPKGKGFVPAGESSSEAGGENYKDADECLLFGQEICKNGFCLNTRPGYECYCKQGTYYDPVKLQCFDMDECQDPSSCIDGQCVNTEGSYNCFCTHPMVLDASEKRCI

Molecule	(E) hGARP, Cell-associated proTGFβ1 KD (hGARP-proTGFβ1)	(F) hLRRC33, Cell-associated proTGFβ1 KD (hLRRC33-proTGFβ1)	(B) hLTBP1, Matrix-associated proTGFβ1 KD (hLTBP1-proTGFβ1)	(C) hLTBP3, Matrix-associated proTGFβ1 KD (hLTBP3-proTGFβ1)	Kd [1, 3] [nM]	Kd [1, 4] [nM]	(H) G/D (fold bias) [1] [fold]	Kd [2] [nM]
Ab12: monoclonal antibody; VH SEQ ID NO: 237, VL SEQ ID NO: 241 (antibody, V domains shown) VH: QVQLVESGGGVVQPGRSLRLSCAASGFTFSDYAMVWVRQAPGKGLEWVSAISGSGFTTYYADSVKGRFTISRDNSKNTLYLQMNSLRAEDTAVYYCARVSSGHWDFDYWGQGTLVTVSS VL: DIQLTQSPSSLSASVGDRVTITCRASQSISSYLNWYQQKPGKAPKLLIYAASNLQSGVPSRFSGSGSGTDFTLTISSLQPEDFATYYCQQTYTVPLTFGGGTKVEIK	1.70E−09	3.20E−09	7.80E−10	6.60E−10	0.72	2.45	3.40	0.17
Ab19: monoclonal antibody; VH SEQ ID NO: 250, VL SEQ ID NO: 241 (antibody, V domains shown) VH: QVQLVESGGGVVQPGRSLRLSCAASGFTFSSFAMTWVRQAPGKGLEWVSAISGSGAATYFADSVKGRFTISRDNSKNTLYLQMNSLRAEDTAVYYCARVSSGHWDFDEWGQGTLVTVSS VL: DIQLTQSPSSLSASVGDRVTITCRASQSISSYLNWYQQKPGKAPKLLIYAASNLQSGVPSRFSGSGSGTDFTLTISSLQPEDFATYYCQQTYTVPLTFGGGTKVEIK	3.80E−09	5.70E−09	2.10E−09	2.70E−09	2.83	4.75	1.68	0.172

Second part, led by results:

(E) hGARP, Cell-associated proTGFβ1 KD (hGARP-proTGFβ1)	(F) hLRRC33, Cell-associated proTGFβ1 KD (hLRRC33-proTGFβ1)	(B) hLTBP1, Matrix-associated proTGFβ1 KD (hLTBP1-proTGFβ1)	(C) hLTBP3, Matrix-associated proTGFβ1 KD (hLTBP3-proTGFβ1)	Molecule	Kd [1, 3] [nM]	Kd [1, 4] [nM]	(H) G/D (fold bias) [1] [fold]	Kd [2] [nM]
1.50E−11	8.70E−11	3.70E−11	2.60E−11	Ab32: monoclonal antibody; VH SEQ ID NO: 140, VL SEQ ID NO: 15 (antibody, V domains shown) VH: EVQLVESGGGLVQPGGSLRLSCAASGFTFSSFSMNWVRQAPGKGLEWVSYISPSADTIYYADSVKGRFTISRDNAKNTLYLQMNSLRAEDTAVYYCARGVWDMGDMLDPWGQGTLVTVSS VL: DIQMTQSPSSLSASVGDRVTITCQASQDITNYLNWYQQKPGKAPKLLIYDASNLETGVPSRFSGSGSGTDFTFTISSLQPEDIATYYCQQADNHPPWTFGGGTKVEIK	0.032	0.051	1.60	0.242
7.80E−12	4.60E−11	1.10E−11	7.00E−12	Ab33: monoclonal antibody; VH SEQ ID NO: 141, VL SEQ ID NO: 15 (antibody, V domains shown) VH: EVQLVESGGGLVQPGGSLRLSCAASGFTFSSFSMNWVRQAPGKGLEWVSYISPSADTIYYADSVKGRFTISRDNAKNTLYLQMNSLRAEDTAVYYCAHGVLDYGDMLDPWGQGTLVTVSS VL: DIQMTQSPSSLSASVGDRVTITCQASQDITNYLNWYQQKPGKAPKLLIYDASNLETGVPSRFSGSGSGTDFTFTISSLQPEDIATYYCQQADNHPPWTFGGGTKVEIK	0.009	0.027	3.00	0.145
